Our source for the Kd values is publication PMC12065890.

For test [1], the target named is full-length Amh (SPR protein) (zebrafish). Description: SPR. In general terms: Surface plasmon resonance follows binding to a sensor surface in real time, without labels.
Test [2] deals with Amh C-terminal domain (SPR protein) (zebrafish). Description: SPR.

As to “Bmpr2a domain protein (protein kinase domain of Bmpr2a, SPR protein) (domain or fragment)”, the values for the Kd in test [1] and in test [2] were 116 nM and 1390 nM, respectively.

As usually defined, the Kd is the equilibrium constant for the complex coming apart. Low readings indicate higher affinity, high ones lower affinity.
